Results taken from patent US20220290167.

Biological target: T1, recombinant B. taurus beta casein with HA tag, 6 histidine tag and HDEL peptide, produced by pMOZ702 in N. benthamiana leaf
T1 chain: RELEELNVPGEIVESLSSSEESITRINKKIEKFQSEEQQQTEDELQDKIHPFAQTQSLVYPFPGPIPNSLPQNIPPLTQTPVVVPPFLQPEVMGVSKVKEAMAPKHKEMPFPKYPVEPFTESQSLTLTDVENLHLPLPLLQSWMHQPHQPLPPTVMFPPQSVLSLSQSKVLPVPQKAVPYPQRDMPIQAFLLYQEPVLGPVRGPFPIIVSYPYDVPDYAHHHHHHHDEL

B1: recombinant H. sapiens Fam20C expressed from pMOZ11 (protein)
chain: LDLLPRLERRGARPSGEPGCSCAQPAAEVAAPGWAQVRGRPGEPPAASSAAGDAGWPNKHTLRILQDFSSDPSSNLSSHSLEKLPPAAEPAERALRGRDPGALRPHDPAHRPLLRDPGPRRSESPPGPGGDASLLARLFEHPLYRVAVPPLTEEDVLFNVNSDTRLSPKAAENPDWPHAGAEGAEFLSPGEAAVDSYPNWLKFHIGINRYELYSRHNPAIEALLHDLSSQRITSVAMKSGGTQLKLIMTFQNYGQALFKPMKQTREQETPPDFFYFSDYERHNAEIAAFHLDRILDFRRVPPVAGRMVNMTKEIRDVTRDKKLWRTFFISPANNICFYGECSYYCSTEHALCGKPDQIEGSLAAFLPDLSLAKRKTWRNPWRRSYHKRKKAEWEVDPDYCEEVKQTPPYDSSHRILDVMDMTIFDFLMGNMDRHHYETFEKFGNETFIIHLDNGRGFGKYSHDELSILVPLQQCCRIRKSTYLRLQLLAKEEYKLSLLMAESLRGDQVAPVLYQPHLEALDRRLRVVLKAVRDCVERNGLHSVVDDDLDTEHRAASARHDEL
  Western blot band migration of beta casein; HsFam20C alone coexpressed in tobacco leaf (FIG. 20, lane 5, '1 human kinase'): In lanes containing beta casein coexpressed with 1 human kinase, 2 human kinases, 1 bovine kinase or 2 bovine kinases the bands are shifted upward on the gel relative to the sample transformed with only beta casein
  Western blot band migration of beta casein; HsFam20C coexpressed together with HsFam20A in tobacco leaf (FIG. 19, lanes 3 and 4): In lanes containing beta casein coexpressed with the human kinases the bands are shifted upward on the gel relative to the sample transformed with only beta casein
  Western blot band migration of beta casein; HsFam20C coexpressed together with HsFam20A in tobacco leaf (FIG. 20, lane 8, '2 human kinases'): In lanes containing beta casein coexpressed with 1 human kinase, 2 human kinases, 1 bovine kinase or 2 bovine kinases the bands are shifted upward on the gel relative to the sample transformed with only beta casein

B2: recombinant H. sapiens Fam20A expressed from pMOZ12 (protein)
chain: QLRPRERPRGCPCTGRASSLARDSAAAASDPGTIVHNFSRTEPRTEPAGGSHSGSSSKLQALFAHPLYNVPEEPPLLGAEDSLLASQEALRYYRRKVARWNRRHKMYREQMNLTSLDPPLQLRLEASWVQFHLGINRHGLYSRSSPVVSKLLQDMRHFPTISADYSQDEKALLGACDCTQIVKPSGVHLKLVLRFSDFGKAMFKPMRQQRDEETPVDFFYFIDFQRHNAEIAAFHLDRILDFRRVPPTVGRIVNVTKEILEVTKNEILQSVFFVSPASNVCFFAKCPYMCKTEYAVCGNPHLLEGSLSAFLPSLNLAPRLSVPNPWIRSYTLAGKEEWEVNPLYCDTVKQIYPYNNSQRLLNVIDMAIFDFLIGNMDRHHYEMFTKFGDDGFLIHLDNARGFGRHSHDEISILSPLSQCCMIKKKTLLHLQLLAQADYRLSDVMRESLLEDQLSPVLTEPHLLALDRRLQTILRTVEGCIVAHGQQSVIVDGPVEQLAPDSGQANLTSHDEL
  Western blot band migration of beta casein; HsFam20A coexpressed together with HsFam20C in tobacco leaf (FIG. 19, lanes 3 and 4): In lanes containing beta casein coexpressed with the human kinases the bands are shifted upward on the gel relative to the sample transformed with only beta casein
  Western blot band migration of beta casein; HsFam20A coexpressed together with HsFam20C in tobacco leaf (FIG. 20, lane 8, '2 human kinases'): In lanes containing beta casein coexpressed with 1 human kinase, 2 human kinases, 1 bovine kinase or 2 bovine kinases the bands are shifted upward on the gel relative to the sample transformed with only beta casein

B3: recombinant B. taurus Fam20C expressed from pMOZ14 (protein)
chain: MLLPKLERSAARPSGEPGCSCAQPAAEAAAPGWAQARGHPGGELEAAASAAGDAGWPNKHTLRILQDFSSDPSSNLTSHSLEKLPPAAEAAEGAPPGQDPGVRRPPDPAHRPLPRDPGPRGPVLPPGLSGDGSLLTRLFQHPLYQVPIPPLTEGDVLFNVNSDIRFNPKAATAENPDWPHEGPEDEFLPTGEAAVDSYPNWLKFHIGINRYELYSRHNPAVGALLQDLGTQKITSVAMKSGGTQLKLIMTFQNYGQALFKPMKQTREQETPPDFFYFSDYERHNAEIAAFHLDRILDFRRVPPVAGRLVNMTKEIRDVTRDKKLWRTFFISPANNVCFYGECSYYCSTEHALCGKPDQIEGSLAAFLPDLALAKRKTWRNPWRRSYHKRKKAEWEVDPDYCEEVRQTPPYDSSHRLLDVMDMTIFDFLMGNMDRHHYETFEKFGNETFIIHLDNGRGFGKHSHDELSILVPLQQCCRIRRSTYLRLQLLAQEEHRLSLLMAEALRADRVAPVLFQPHLEALDRRLRIVLRAVGDCVEKDGLHSVVEDDLGPEHRAAAGRHDEL
  Western blot band migration of beta casein; BtFam20C coexpressed together with BtFam20A in tobacco leaf (FIG. 20, lane 7, '2 bovine kinases'): In lanes containing beta casein coexpressed with 1 human kinase, 2 human kinases, 1 bovine kinase or 2 bovine kinases the bands are shifted upward on the gel relative to the sample transformed with only beta casein

B4: recombinant B. taurus Fam20A expressed from pMOZ15 (protein)
chain: MHVSSHLGPRVRSRLQPRERPLGCPCARRAASPAPGPAPSAPRRVEPSGGGDPGSKLRALFAHPLYNEPEEPPLLGPEDSLLAGPEALRYYRRKVARWNRRRKMYKEQLNLTSPEPPVQLRQEASWVQFHLGINRHGLYPRSSPVVSKLLQDMRHFPTISADYSQDEKALLGACDCSQIVKPSGVHLKLVLRFSDFGKAMFKPMRQQRDEETPEDFFYFIDFQRHNAEIAAFHLDRILDFRRVPPTVGRLVNVTREILEVTRNEILQSVFFVSPANNVCFFAKCPYMCKTEYAVCGSPHLLEGSLSAFLPSLNLAPRFSMPSPWIRSYSLAGREEWEVNPLYCEAVKQAYPHNSSSRLLNIIDMAIFDFLIGNMDRHHYEMFTKFGEDGFLIHLDNARGFGRHSHDEVSILAPLFQCCRIKRKTLLHLQLLAQADYRLSDVMRESLLEDQLSPVLTEPHLLALDRRLQTVLRTVQDCIEAHGEQSVVADGPVGQWAPDSSRANATSHDEL
  Western blot band migration of beta casein; BtFam20A coexpressed together with BtFam20C in tobacco leaf (FIG. 20, lane 7, '2 bovine kinases'): In lanes containing beta casein coexpressed with 1 human kinase, 2 human kinases, 1 bovine kinase or 2 bovine kinases the bands are shifted upward on the gel relative to the sample transformed with only beta casein
